Measurements as given in US20230159603A1.

Molecular target: CD122-Fc (UniProt P14784)
Assay: SPR, construct immobilised, CD122-Fc flowed, after protease cleavage

Chain of CD122-Fc (P14784 27-239 limits assumed): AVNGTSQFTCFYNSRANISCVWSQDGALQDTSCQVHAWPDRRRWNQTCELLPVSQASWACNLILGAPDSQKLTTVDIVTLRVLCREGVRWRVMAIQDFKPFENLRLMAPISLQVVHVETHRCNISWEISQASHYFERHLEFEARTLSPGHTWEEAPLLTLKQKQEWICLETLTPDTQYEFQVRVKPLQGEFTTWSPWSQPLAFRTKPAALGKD

B1: AK168 after protease cleavage (Fc fusion, from a related filing)
chain: LYHPSGPAPTSSSTKKTQLQLEHLLLDLQMILNGINNYKNPKLTAMLTAKFAMPKKATELKHLQCLEEALKPLEEVLNLAQSKNFHLRPRDLISNINVIVLELKGSETTFMCEYADETATIVEFLNRWITFAQSIISTLT
Kd: 175 nM
